{
  "source": "the RNAGym collection of RNA variant scans (doi:10.7554/elife.90254)",
  "parents": {"B1": {"name": "LINE1-full (parent)", "chain": "UACGUAGGUGGUUUUCCCCUGAUAGUGCUAAGGGGGCCUGGAAGUUUGGACUGGGCAGAGCUCAACACAGCGUGGCAAAGUGGCUGUGGCUAGACUGCCUCUCUGGAUUCCUCGUCACUCAGCAGGGCAUCUCUGAGAGAAAUGCC"}},
  "data": [
    {"variants_of": "B1", "assay": "self-cleavage, relative activity (ratio to wild type); higher = more cleavage; in vitro, sequencing; the parent is a self-cleaving ribozyme", "values": [
      {"variant": "UACGUAGGUGGUUUUCCCCUGAUAGUGCUAAGGGGGCCUGGAAGUUUGGACUGGGCAGAGCUCAGCACAGCGUGGCAAAGUGGCCGUGGCUAGACUGCCUCUCUGGAUUCCUCGUCACUCAGCAGGGCAUCUCUGAGAGAAAUGCC", "note": "[A65G U85C]", "self-cleavage": 0.13},
      {"variant": "UACGUAGGUGGUUUUCCCCUGAUAGUGCUAAGGGGGCCUGGAAGUUUGGACUGGGCAGAGCUCAACACAGCGUGGCAAAGUGGCUGUGGCCAGACUGCCUCUCUGGAUUCCUCGUCACUCAGCAGGGCAUCUCAGAGAGAAAUGCC", "note": "[U91C U134A]", "self-cleavage": 0.57},
      {"variant": "UACGUAGGUGGUUUUCCCUUGAUAGUGCUAAGGGGGCCUGGAAGUUUGGACUGGGCAGAGCUCAACACAGCGUGGCAAAGUGGCUGUGGCUAGACUGCCUCUCUGGAUUCCUCGUCACUCAGCAGGGCAUCUAUGAGAGAAAUGCC", "note": "[C19U C133A]", "self-cleavage": 0.59},
      {"variant": "UACGUAGGUGGCUUUCCCCUGAUAGUGCUAAGGGGACCUGGAAGUUUGGACUGGGCAGAGCUCAACACAGCGUGGCAAAGUGGCUGUGGCUAGACUGCCUCUCUGGAUUCCUCGUCACUCAGCAGGGCAUCUCUGAGAGAAAUGCC", "note": "[U12C G36A]", "self-cleavage": 1.04},
      {"variant": "UACGUAGGUGGUUUUCCCCUGAUAGUGCUAAGGGAGCCUGGAAGUUUGGACUGGGCAGAGCUCAACACAGCGUGGCAAAGUGGCUGUGGCUAGACUGCCUCUCUGGAUUCCUCGUCACUCAGCAGGGCAUUUCUGAGAGAAAUGCC", "note": "[G35A C131U]", "self-cleavage": 1.67},
      {"variant": "UACGUAGGUGGUUUUCCCCUGAUAGUGCUAAGGGGGCCUGGAAGUUUGGACUGGGCAGAGCUCAACACAGCGUGGCAAAGUGGCUGUGGCUAGACUGCCUCUCUGGAUUCCUCGUCACUCAGCAGGGCAUCUCUGAGAGAGAUGUC", "note": "[A141G C145U]", "self-cleavage": 1},
      {"variant": "UACGUAGGUGGUUUUCCCCUGAUAGUGCCAAGGGGGCCUGGAAGUUUGGACUGGGCAGAGCUCAACACAGCGUGGCAAAGUGGCUGUGGCUAGACUGCCUCUCUGGAUUCCUCGUCACUCAGCAGGGCAUCUCUGAGAGAAAUGCC", "note": "[U29C]", "self-cleavage": 1.28},
      {"variant": "UACGUAGGUGGUUUUCCCCUGGUAGUGCUAAGGGGGCCUGGAAGUUUGGACUGGGCAGAGCUCAACACAGCGUGGCAAAGUGGCUGUGGCUAGAUUGCCUCUCUGGAUUCCUCGUCACUCAGCAGGGCAUCUCUGAGAGAAAUGCC", "note": "[A22G C95U]", "self-cleavage": 0.53},
      {"variant": "UACGUAGGUGGUUUUCCCCUGAUAGUGCUAAGGGGGCCUGGAAGUUUGGACUGGGCAGAGCUCAACACAGCGAGGCAAAGCGGCUGUGGCUAGACUGCCUCUCUGGAUUCCUCGUCACUCAGCAGGGCAUCUCUGAGAGAAAUGCC", "note": "[U73A U81C]", "self-cleavage": 1.09},
      {"variant": "UACGUAGGUGGUUUUCCCCUGAUAGUGCUAAGGGGGCCUGGAAGUUUGGACUGGGCAGAGCCCAACACAGCGUGGCAAAGUGGCAGUGGCUAGACUGCCUCUCUGGAUUCCUCGUCACUCAGCAGGGCAUCUCUGAGAGAAAUGCC", "note": "[U62C U85A]", "self-cleavage": 0.03},
      {"variant": "UACGUGGGUGGUUUUCCCCUGAUAGUGCUAAGGGGGCCUGGAAGUUUGGACUGGGCUGAGCUCAACACAGCGUGGCAAAGUGGCUGUGGCUAGACUGCCUCUCUGGAUUCCUCGUCACUCAGCAGGGCAUCUCUGAGAGAAAUGCC", "note": "[A6G A57U]", "self-cleavage": 0.42},
      {"variant": "UACGUAGGUGGUUUUCCCCUGAUAGAGCUAAGGGGGCCUGGAAGUUUGGACUGGGCAGAGCUCAACACAGCGUGGCAAAGUGGCUGUGGCUAGACUGCCUCUCUGGAUUCCUCGUCACUCAGCAGGGCAUCUCUGAGAGAGAUGCC", "note": "[U26A A141G]", "self-cleavage": 1.11},
      {"variant": "UACGUAGGUGGUUUUCCCCUGAUAGUGCUAAGGGCGCCUGGAAGUUUGGACUGGGCAGAGCUCAACACAGCGUGGCAAAGUGGCUGUGGCUAGGCUGCCUCUCUGGAUUCCUCGUCACUCAGCAGGGCAUCUCUGAGAGAAAUGCC", "note": "[G35C A94G]", "self-cleavage": 0.14},
      {"variant": "UACGUAGGUGGUUUUCCCCUGAUAGUGCUAAGGGGGCCUGGAAGUUUGGACUGGGCAGAGCUCAACACAGCGUGGCAGAGUGGCUGUGGCUAGACCGCCUCUCUGGAUUCCUCGUCACUCAGCAGGGCAUCUCUGAGAGAAAUGCC", "note": "[A78G U96C]", "self-cleavage": 0.1},
      {"variant": "UACGUAGGUGGUUUUCCCCUGAUAGUGCUAAGGGGGCCUGGAAGUUUGGACUGGGCAGAGCUCAACACAGCGUGGCAAAGUGGCUGUGGCUAGACUGCCUCUCUGGAUUCCUCGUCACUCAGCAGGGCAUCCCUGAGAGGAAUGCC", "note": "[U132C A140G]", "self-cleavage": 1.65},
      {"variant": "UACGUAGGUGGUUCUCCCCUGAUAGUGCUAAGGGGGCCUGGAAGUUUGGACUGGGCAGAGCUCAACACAGCGUGGCAAAGUGGCUGUGGCUAGACUGCCUCUCUUGAUUCCUCGUCACUCAGCAGGGCAUCUCUGAGAGAAAUGCC", "note": "[U14C G105U]", "self-cleavage": 1.11},
      {"variant": "UACGUAGGUGGUUUUCCCCUGAUAGUGCUAAGGGGGCCUGGGAGUUUGGACUGGGCAGAGCUCAACACAGCGUGGCAAAGUGGCUGUGGCUAGACUGCCUCUCUGGAUUCCUCGUCACUCAGCAGGGCAUCUCUGAGAGUAAUGCC", "note": "[A42G A140U]", "self-cleavage": 1.2},
      {"variant": "UACGUAGGUGGUUUCCCCCUGAUAGUGCUAAGGGGGCCUGGAAGUUUGGACUGGGCAGAGCUCAACACAGCGUGGCAAAGUGGCUGUGGCUAGACUGCCUCUCUGGAUUCCUCGUCACUCAGCAGGGCAUCUCUGAGAGUAAUGCC", "note": "[U15C A140U]", "self-cleavage": 1.61},
      {"variant": "UACGUAGGUGGUUAUCCCCUGAUAGUGCUAUGGGGGCCUGGAAGUUUGGACUGGGCAGAGCUCAACACAGCGUGGCAAAGUGGCUGUGGCUAGACUGCCUCUCUGGAUUCCUCGUCACUCAGCAGGGCAUCUCUGAGAGAAAUGCC", "note": "[U14A A31U]", "self-cleavage": 0.84},
      {"variant": "UACGUAGGUGAUUUUCCCCUGAUAGUGCUAAGGGGGCCUGGAAGUUUGGACUGGGCAGAGCUCAACACAGCGUGGCUAAGUGGCUGUGGCUAGACUGCCUCUCUGGAUUCCUCGUCACUCAGCAGGGCAUCUCUGAGAGAAAUGCC", "note": "[G11A A77U]", "self-cleavage": 1.58}
    ]}
  ]
}
